Assay results from PMC6994217 (Science Advances, 2020).
Square brackets hold non-standard residues; d marks the D form. pY = N[C@@H](Cc1ccc(OP(=O)(O)O)cc1)C(=O)O

T1: N-terminal SH2 domain of SHP2 (SHP2^1–105) (human, UniProt Q06124-2 1-105)
T1 sequence: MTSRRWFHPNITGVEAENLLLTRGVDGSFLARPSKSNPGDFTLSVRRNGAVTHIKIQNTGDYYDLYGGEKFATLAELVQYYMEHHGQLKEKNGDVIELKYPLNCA

T2: C-terminal SH2 domain of SHP2 (SHP2^106–220) (human, UniProt Q06124-2 106-220)
T2 sequence: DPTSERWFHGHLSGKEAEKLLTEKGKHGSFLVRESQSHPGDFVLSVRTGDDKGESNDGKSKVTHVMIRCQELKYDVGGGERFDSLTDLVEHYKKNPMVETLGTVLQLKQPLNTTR


Assays:
[1] = molecular target: SHP2^1–220 (tandem SH2, both SH2 domains) (human) (UniProt Q06124); assay: NMR DOSY
[2] = molecular target: SHP2^1–220 (tandem SH2, both SH2 domains) (human) (UniProt Q06124); assay: SEC-MALS
[3] = molecular target: T1, N-terminal SH2 domain of SHP2 …; assay: ITC
[4] = molecular target: T2, C-terminal SH2 domain of SHP2 …; assay: ITC

Molecule | stoichiometry N (peptide per protein) [1] | stoichiometry N (peptide per protein) [2] | Kd [3] [nM] | Kd [4] [nM]
diphosphorylated bidentate peptide ITIM-[dPEG4]2-ITSM, Ac-FSVD(pY)GELDFQ-(dPEG4)-(dPEG4)-EQTE(pY)ATIVFP-NH2 | 1 | – | – | –
diphosphorylated bidentate peptide ITSM-[dPEG4]2-ITSM, Ac-EQTE(pY)ATIVFP-(dPEG4)-(dPEG4)-EQTE(pY)ATIVFP-NH2 | – | 1 | – | –
Ac-EQTE[pY]ATIVFP-NH2 (SMILES CC[C@H](C)[C@H](NC(=O)[C@@H](NC(=O)[C@H](C)NC(=O)[C@H](Cc1ccc(OP(=O)(O)O)cc1)NC(=O)[C@H](CCC(=O)O)NC(=O)[C@@H](NC(=O)[C@H](CCC(N)=O)NC(=O)[C@H](CCC(=O)O)NC(C)=O)[C@@H](C)O)[C@@H](C)O)C(=O)N[C@H](C(=O)N[C@@H](Cc1ccccc1)C(=O)N1CCC[C@H]1C(N)=O)C(C)C) [PD-1 ITSM phosphopeptide, Ac-EQTE(pY)ATIVFP-NH2] | – | – | 167 | 13
Ac-FSVD[pY]GELDFQ-NH2 (SMILES CC(=O)N[C@@H](Cc1ccccc1)C(=O)N[C@@H](CO)C(=O)N[C@H](C(=O)N[C@@H](CC(=O)O)C(=O)N[C@@H](Cc1ccc(OP(=O)(O)O)cc1)C(=O)NCC(=O)N[C@@H](CCC(=O)O)C(=O)N[C@@H](CC(C)C)C(=O)N[C@@H](CC(=O)O)C(=O)N[C@@H](Cc1ccccc1)C(=O)N[C@@H](CCC(N)=O)C(N)=O)C(C)C) [PD-1 ITIM phosphopeptide, Ac-FSVD(pY)GELDFQ-NH2] | – | – | 1900 | 26400
